# According to PMC8616923, “Initiation of cytosolic plant purine nucleotide catabolism involves a monospecific xanthosine monophosphate phosphatase” (Nature Communications, 2021):
# T1: XMPP (XMPP-HAStrep; SDTL1) (Arabidopsis thaliana, UniProt F4ISS8)
# T1 construct: gene At2g32150; monomer
# T1 sequence (F4ISS8 1-263): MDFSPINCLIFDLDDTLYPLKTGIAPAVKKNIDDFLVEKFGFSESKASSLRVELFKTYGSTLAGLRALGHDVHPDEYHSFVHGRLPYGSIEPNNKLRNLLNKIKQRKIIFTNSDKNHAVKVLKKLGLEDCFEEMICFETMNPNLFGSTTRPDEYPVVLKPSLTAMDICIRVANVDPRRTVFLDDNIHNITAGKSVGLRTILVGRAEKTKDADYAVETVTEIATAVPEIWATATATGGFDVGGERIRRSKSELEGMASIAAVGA
# T2: XMPP (C-terminal His-tagged full-length XMPP) (Arabidopsis thaliana, UniProt F4ISS8)
# T2 construct: gene At2g32150; full-length (13 residues beyond Ser250), C-terminal His tag, expressed in E. coli, HisTrap purified; monomer
# T2 sequence (F4ISS8 1-263): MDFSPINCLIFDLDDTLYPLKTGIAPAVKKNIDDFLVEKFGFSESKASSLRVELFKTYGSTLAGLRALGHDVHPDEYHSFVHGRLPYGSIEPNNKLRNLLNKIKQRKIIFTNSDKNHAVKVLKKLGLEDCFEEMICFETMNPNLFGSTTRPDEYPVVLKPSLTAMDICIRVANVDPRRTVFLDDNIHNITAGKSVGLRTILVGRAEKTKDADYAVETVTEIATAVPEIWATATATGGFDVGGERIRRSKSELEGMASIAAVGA
# B1: XMPP (XMPP-HAStrep; SDTL1) (Arabidopsis thaliana) (protein)
# chain: MDFSPINCLIFDLDDTLYPLKTGIAPAVKKNIDDFLVEKFGFSESKASSLRVELFKTYGSTLAGLRALGHDVHPDEYHSFVHGRLPYGSIEPNNKLRNLLNKIKQRKIIFTNSDKNHAVKVLKKLGLEDCFEEMICFETMNPNLFGSTTRPDEYPVVLKPSLTAMDICIRVANVDPRRTVFLDDNIHNITAGKSVGLRTILVGRAEKTKDADYAVETVTEIATAVPEIWATATATGGFDVGGERIRRSKSELEGMASIAAVGA
# notes: monomer
# B2: XMPP (C-terminal His-tagged full-length XMPP) (Arabidopsis thaliana) (protein)
# chain: MDFSPINCLIFDLDDTLYPLKTGIAPAVKKNIDDFLVEKFGFSESKASSLRVELFKTYGSTLAGLRALGHDVHPDEYHSFVHGRLPYGSIEPNNKLRNLLNKIKQRKIIFTNSDKNHAVKVLKKLGLEDCFEEMICFETMNPNLFGSTTRPDEYPVVLKPSLTAMDICIRVANVDPRRTVFLDDNIHNITAGKSVGLRTILVGRAEKTKDADYAVETVTEIATAVPEIWATATATGGFDVGGERIRRSKSELEGMASIAAVGA
# notes: full-length (13 residues beyond Ser250), C-terminal His tag, expressed in E. coli, HisTrap purified; monomer
# Assays:
# [1] = molecular target: T1, XMPP (XMPP-HAStrep; SDTL1); test: inhibition of XMP hydrolysis (phosphate assay); type: biochemical; settings: 10 μM XMP as substrate; 22 °C
# [2] = molecular target: T2, XMPP (C-terminal His-tagged full-length XMPP); test: EnzChek phosphate assay (MESG / purine nucleoside phosphorylase), initial rates; type: biochemical; settings: 30 °C, pH 7.5 (50 mM Tris), 1.25 mM MgCl2
# [3] = molecular target: T2, XMPP (C-terminal His-tagged full-length XMPP); test: as above; type: biochemical; settings: 30 °C, pH 7.5 (50 mM Tris), 1.25 mM MgCl2; remark: listed apart in the source
# purified protein = substrate: O=c1[nH]c(=O)c2ncn([C@@H]3O[C@H](COP(=O)(O)O)[C@@H](O)[C@H]3O)c2[nH]1; test: purified protein; type: biochemical, Arabidopsis thaliana; settings: 22 °C
# [4] = substrate: O=c1[nH]c(=O)c2ncn([C@@H]3O[C@H](COP(=O)(O)O)[C@@H](O)[C@H]3O)c2[nH]1; test: EnzChek phosphate assay (MESG / purine nucleoside phosphorylase), initial rates; type: biochemical, Arabidopsis thaliana; settings: 30 °C, pH 7.5 (50 mM Tris), 1.25 mM MgCl2
# Procedure: EnzChek phosphate assay (MESG / purine nucleoside phosphorylase), initial rates on XMPP (C-terminal His-tagged full-length XMPP) | enzymatic activities and kinetic constants of XMPP variants were determined
molecule,measurement,setting,value
O=c1[nH]c(=O)c2ncn([C@@H]3O[C@H](CO)[C@@H](O)[C@H]3O)c2[nH]1 [xanthosine],inhibition,[1],"For XMPP, we confirmed an inhibition by xanthosine"
O=c1[nH]c(=O)c2ncn([C@@H]3O[C@H](COP(=O)(O)O)[C@@H](O)[C@H]3O)c2[nH]1 [XMP],KM,[2],"direct and indirect hydrogen bonds to Thr61, Lys29, and Arg51"
same,KM,[3],"hydrophobic residues Val28, Ile31, and Phe55 that shape the xanthine-binding pocket"
B1,Km,purified protein,3.9 ± 0.2 µM
same,kcat,purified protein,9.2 ± 0.1 s⁻¹
B2,Km,[4],8.1(0.8) μM
same,kcat,[4],16.5(0.33) s^-1
